According to PMC3873911 (PLoS ONE, 2013):
Residues, ends and D or L forms follow the SMILES beside them.

What was measured:
Type in all cases: cell-based
NPSR receptor [1] = target: T1, NPSR receptor (Homo sapiens, UniProt Q6W5P4); test: CRE-luciferase reporter assay in HEK293T cells over-expressing NPSR (cAMP signaling); conditions: for EC50 / Agonist effect (CRE) EC50: HEK293T co-transfected with CRE-luciferase reporter (50 ng), pSV-β-Gal (5 ng), NPSR plasmid (50 ng), after 36 h, 18 h with peptide in serum-free media, normalized to β-galactosidase, at least three experiments in triplicates, apparent EC50, Graphpad Prism 5.0; for EC50: read-out: Agonist effect (CRE) EC50; for bioactivity in the CRE-luciferase assay (in words): 6th position substitution mutants, HEK293T with NPSR, Fig. 3A
T1 construct: Full length cDNA for the NPSR receptor was purchased from OriGene Technologies; host or cells: HEK293T
T1 sequence (Q6W5P4 1-371): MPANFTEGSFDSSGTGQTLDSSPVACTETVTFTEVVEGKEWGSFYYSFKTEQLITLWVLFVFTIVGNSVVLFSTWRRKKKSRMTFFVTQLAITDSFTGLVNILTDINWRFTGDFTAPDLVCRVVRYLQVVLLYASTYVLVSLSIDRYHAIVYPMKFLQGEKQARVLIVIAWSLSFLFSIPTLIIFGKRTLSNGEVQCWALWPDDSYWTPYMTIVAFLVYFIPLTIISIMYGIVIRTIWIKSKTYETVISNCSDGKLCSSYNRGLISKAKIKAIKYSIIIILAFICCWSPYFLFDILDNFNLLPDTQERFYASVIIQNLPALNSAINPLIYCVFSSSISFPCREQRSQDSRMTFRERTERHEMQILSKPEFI
Method: (§1) HEK293T cells seeded in 24-well plates were co-transfected with different luciferase reporters (50 ng), the pSV-β-Gal plasmid (5 ng), and the NPSR receptor plasmid (50 ng). After 36 h, cells were cultured in serum-free media for another 18 h with increasing doses of the various NPS peptides. Luciferase activities were determined using the luciferase assay kit (Promega) and normalized using β-galactosidase activities. All experiments were performed at least three times in triplicates. Data (EC50) were analyzed using Graphpad Prism 5.0.
(§2) Figure 2 Sequence comparison and lower NPSR receptor signaling ability of the L^6-NPS variant. (A) Alignment of NPS among diverse vertebrate species. Sequences were aligned by the ClustalW program. Stars indicate identical amino acids and double dots (:) indicate conserved amino acids. The predicted convertase cleavage sites (KR) were underlined and the 6th amino acid “V” or “L” in the mature peptide region are shown in bold. (B) Comparison of NPS and L^6-NPS signaling based on the CRE-luciferase assay. (C) Comparison of NPS and L^6-NPS signaling based on the NFAT luciferase assay. HEK293T cells seeded in 24-well plates were co-transfected with different luciferase reporters (50 ng), the pSV-β-Gal plasmid (5 ng), and the NPSR receptor plasmid (50 ng). After 36 h, cells were cultured in serum-free media for another 18 h with increasing doses of the various NPS peptides. EC50 values were analyzed using Graphpad Prism 5.0.
(§3) To compare the bioactivity of wide type NPS (NPS) and the SNP variant (L^6-NPS), we monitored their receptor-activation activities in vitro using HEK293T cells over-expressing NPSR. Because NPS activates NPSR by increasing cAMP production and intracellular Ca^2+ signaling, [10], we used CRE- and NFAT- response elements to measure cAMP and intracellular Ca2+ signaling respectively, [36]. As expected, treatment with wide-type NPS led to dose-dependent stimulation of both CRE- and NFAT- luciferase activities (Fig. 2B and C). We also performed the relaxin-LGR7 ligand-receptor pair as a positive control for the CRE-luciferase assay. Also, gastrin-CCKB ligand-receptor pair was used as a positive control for the SRE-luciferase assay. Cells transfected with the empty vector were also treated with NPS to serve as a negative control (Fig. S4).

NPSR receptor [2] = target: T1, NPSR receptor; test: NFAT-luciferase reporter assay in HEK293T cells over-expressing NPSR (intracellular Ca2+ signaling); conditions: HEK293T co-transfected with NFAT-luciferase reporter (50 ng), pSV-β-Gal (5 ng), NPSR plasmid (50 ng), after 36 h, 18 h with peptide in serum-free media, normalized to β-galactosidase, at least three experiments in triplicates, Graphpad Prism 5.0; for EC50: read-out: Agonist effect (NFAT) EC50
Method: as §1, §2, §3

LGR7 = target: T2, LGR7 (Homo sapiens, UniProt Q9HBX9); test: CRE-luciferase assay, relaxin-LGR7 ligand-receptor pair (positive control); conditions: Fig. S4
T2 construct: expressed in transfected cells; host or cells: HEK293T (inferred from the general luciferase protocol)
T2 sequence (Q9HBX9 1-757): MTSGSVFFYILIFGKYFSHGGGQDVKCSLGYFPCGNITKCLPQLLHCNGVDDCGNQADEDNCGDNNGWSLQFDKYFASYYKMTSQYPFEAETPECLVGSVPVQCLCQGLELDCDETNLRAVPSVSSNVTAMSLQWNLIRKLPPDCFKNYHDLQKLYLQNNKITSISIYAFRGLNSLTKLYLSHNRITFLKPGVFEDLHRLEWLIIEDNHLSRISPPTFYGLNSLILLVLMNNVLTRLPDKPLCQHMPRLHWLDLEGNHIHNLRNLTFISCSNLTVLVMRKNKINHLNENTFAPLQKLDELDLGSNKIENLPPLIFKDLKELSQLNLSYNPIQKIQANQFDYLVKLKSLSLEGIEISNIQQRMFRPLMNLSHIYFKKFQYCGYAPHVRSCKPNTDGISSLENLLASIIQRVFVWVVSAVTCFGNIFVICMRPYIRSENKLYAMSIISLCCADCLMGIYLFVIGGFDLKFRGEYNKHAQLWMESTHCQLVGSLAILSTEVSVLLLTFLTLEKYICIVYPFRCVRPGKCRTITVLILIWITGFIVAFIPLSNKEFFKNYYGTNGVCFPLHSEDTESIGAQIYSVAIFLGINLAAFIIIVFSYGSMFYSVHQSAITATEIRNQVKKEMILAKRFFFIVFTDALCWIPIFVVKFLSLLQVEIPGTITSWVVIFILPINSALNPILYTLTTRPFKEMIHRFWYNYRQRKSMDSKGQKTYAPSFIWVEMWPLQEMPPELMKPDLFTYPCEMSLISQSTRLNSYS
Excerpt: as §3
Supplementary file pone.0083009.s004.pdf: Figure S4 Positive control and negative control for the CRE- and SRE- luciferase assay. […] (PDF) Click here for additional data file.

CSCC[C@H](NC(=O)CNC(=O)[C@@H](NC(=O)CNC(=O)[C@H](C)NC(=O)CNC(=O)[C@H](CC(N)=O)NC(=O)[C@H](CCCNC(=N)N)NC(=O)[C@H](Cc1ccccc1)NC(=O)[C@@H](N)CO)[C@@H](C)O)C(=O)N[C@@H](CCCCN)C(=O)N[C@@H](CCCCN)C(=O)N[C@H](C(=O)N[C@@H](CO)C(=O)N[C@@H](Cc1ccccc1)C(=O)N[C@@H](CCC(N)=O)C(=O)N[C@@H](CCCNC(=N)N)C(=O)N[C@@H](C)C(=O)N[C@@H](CCCCN)C(=O)N[C@@H](CO)C(=O)O)[C@@H](C)O [A^6-NPS] (H-SFRNGAGTGMKKTSFQRAKS-OH)
EC50 (NPSR receptor [1]): 534 nM
EC50 (NPSR receptor [2]): 958 nM

CC[C@H](C)[C@H](NC(=O)CNC(=O)[C@H](CC(N)=O)NC(=O)[C@H](CCCNC(=N)N)NC(=O)[C@H](Cc1ccccc1)NC(=O)[C@@H](N)CO)C(=O)NCC(=O)N[C@H](C(=O)NCC(=O)N[C@@H](CCSC)C(=O)N[C@@H](CCCCN)C(=O)N[C@@H](CCCCN)C(=O)N[C@H](C(=O)N[C@@H](CO)C(=O)N[C@@H](Cc1ccccc1)C(=O)N[C@@H](CCC(N)=O)C(=O)N[C@@H](CCCNC(=N)N)C(=O)N[C@@H](C)C(=O)N[C@@H](CCCCN)C(=O)N[C@@H](CO)C(=O)O)[C@@H](C)O)[C@@H](C)O [I^6-NPS] (H-SFRNGIGTGMKKTSFQRAKS-OH)
EC50 (NPSR receptor [1]): 174 nM
EC50 (NPSR receptor [2]): 280 nM

CSCC[C@H](NC(=O)CNC(=O)[C@@H](NC(=O)CNC(=O)[C@H](CC(C)C)NC(=O)CNC(=O)[C@H](CC(N)=O)NC(=O)[C@H](CCCNC(=N)N)NC(=O)[C@H](Cc1ccccc1)NC(=O)[C@@H](N)CO)[C@@H](C)O)C(=O)N[C@@H](CCCCN)C(=O)N[C@@H](CCCCN)C(=O)N[C@H](C(=O)N[C@@H](CO)C(=O)N[C@@H](Cc1ccccc1)C(=O)N[C@@H](CCC(N)=O)C(=O)N[C@@H](CCCNC(=N)N)C(=O)N[C@@H](C)C(=O)N[C@@H](CCCCN)C(=O)N[C@@H](CO)C(=O)O)[C@@H](C)O [L^6-NPS] (H-SFRNGLGTGMKKTSFQRAKS-OH)
EC50 (NPSR receptor [1]): 586 nM
EC50 (NPSR receptor [2]): 975 nM

CSCC[C@H](NC(=O)CNC(=O)[C@@H](NC(=O)CNC(=O)[C@@H](NC(=O)CNC(=O)[C@H](CC(N)=O)NC(=O)[C@H](CCCNC(=N)N)NC(=O)[C@H](Cc1ccccc1)NC(=O)[C@@H](N)CO)C(C)C)[C@@H](C)O)C(=O)N[C@@H](CCCCN)C(=O)N[C@@H](CCCCN)C(=O)N[C@H](C(=O)N[C@@H](CO)C(=O)N[C@@H](Cc1ccccc1)C(=O)N[C@@H](CCC(N)=O)C(=O)N[C@@H](CCCNC(=N)N)C(=O)N[C@@H](C)C(=O)N[C@@H](CCCCN)C(=O)N[C@@H](CO)C(=O)O)[C@@H](C)O [NPS, Neuropeptide S, reference compound] (H-SFRNGVGTGMKKTSFQRAKS-OH)
EC50 (NPSR receptor [1]): 36.9 nM
EC50 (NPSR receptor [2]): 44.6 nM

D^6-NPS: NPS mutant with aspartic acid at the 6th position (SFRNGDGTGMKKTSFQRAKS; Neuropeptide S; UniProt P0C0P6 70-89, looked up, variant V6D)
bioactivity in the CRE-luciferase assay (in words) (NPSR receptor [1]): complete loss of bioactivity
Agonist effect (CRE) EC50 (NPSR receptor [1]): inactive
Agonist effect (NFAT) EC50 (NPSR receptor [2]): inactive

F^6-NPS: NPS mutant with phenylalanine at the 6th position (SFRNGFGTGMKKTSFQRAKS; Neuropeptide S; UniProt P0C0P6 70-89, looked up, variant V6F)
bioactivity in the CRE-luciferase assay (in words) (NPSR receptor [1]): complete loss of bioactivity
Agonist effect (CRE) EC50 (NPSR receptor [1]): inactive
Agonist effect (NFAT) EC50 (NPSR receptor [2]): inactive

K^6-NPS: NPS mutant with lysine at the 6th position (SFRNGKGTGMKKTSFQRAKS; Neuropeptide S; UniProt P0C0P6 70-89, looked up, variant V6K)
bioactivity in the CRE-luciferase assay (in words) (NPSR receptor [1]): complete loss of bioactivity
Agonist effect (CRE) EC50 (NPSR receptor [1]): inactive
Agonist effect (NFAT) EC50 (NPSR receptor [2]): inactive

N^6-NPS: NPS mutant with asparagine at the 6th position (SFRNGNGTGMKKTSFQRAKS; Neuropeptide S; UniProt P0C0P6 70-89, looked up, variant V6N)
bioactivity in the CRE-luciferase assay (in words) (NPSR receptor [1]): complete loss of bioactivity
Agonist effect (CRE) EC50 (NPSR receptor [1]): inactive
Agonist effect (NFAT) EC50 (NPSR receptor [2]): inactive

relaxin
stimulation of CRE-luciferase via LGR7 (LGR7): normal stimulation
